System: Escherichia coli TOP10
Test: shrunken log2 fold change of peptide-encoding DNA abundance (4.5 h post-induction vs induction); higher = less antimicrobial activity (less host growth inhibition)
Conditions: time post-induction: 4.5 h; library: site-saturation at positions 5, 18, 19, 20
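Also: peptides expressed intracellularly from a pBAD plasmid library in pooled LB shake-flask culture, induced with 0.3% L-arabinose, DNA abundance read by NGS, three biological replicates, DESeq2 with apeglm shrinkage.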

Row | Sequence | shrunken log2 fold change
1 | RRIRQRPPRLPRPRPRPVVGPRP | 0.101
2 | RRIRCRPPRLPRPRPRPNGHPRP | -0.023
3 | RRIRWRPPRLPRPRPRPNLFPRP | 0.144
4 | RRIRFRPPRLPRPRPRPYNDPRP | -0.641
5 | RRIRARPPRLPRPRPRPFRMPRP | -0.184
6 | RRIRPRPPRLPRPRPRPCKYPRP | -0.499
7 | RRIRSRPPRLPRPRPRPKTDPRP | 0.124
8 | RRIRWRPPRLPRPRPRPQSRPRP | 0.299
9 | RRIRMRPPRLPRPRPRPYQPPRP | 0.0396
10 | RRIRSRPPRLPRPRPRPRTNPRP | 0.057
11 | RRIRSRPPRLPRPRPRPIMLPRP | -0.156
12 | RRIRYRPPRLPRPRPRPHLFPRP | -0.313
13 | RRIRDRPPRLPRPRPRPNTHPRP | -0.292
14 | RRIRQRPPRLPRPRPRPLDMPRP | 0.0532
15 | RRIRCRPPRLPRPRPRPPYGPRP | -0.266
16 | RRIRRRPPRLPRPRPRPHNHPRP | -0.237
17 | RRIRDRPPRLPRPRPRPEIHPRP | 0.597
18 | RRIRPRPPRLPRPRPRPRRTPRP | 0.507
19 | RRIRFRPPRLPRPRPRPYRIPRP | -0.34
20 | RRIRRRPPRLPRPRPRPIFCPRP | 0.0473
21 | RRIRRRPPRLPRPRPRPQGDPRP | 0.0133
22 | RRIRERPPRLPRPRPRPWGHPRP | -0.118
23 | RRIRIRPPRLPRPRPRPADIPRP | 0.00782
24 | RRIRRRPPRLPRPRPRPWLSPRP | 0.0437
25 | RRIRFRPPRLPRPRPRPCRAPRP | 0.0454

Row | Sequence | shrunken log2 fold change
26 | RRIRFRPPRLPRPRPRPKMPPRP | -0.0572
27 | RRIRDRPPRLPRPRPRPDPEPRP | 0.0311
28 | RRIRNRPPRLPRPRPRPHMWPRP | -0.0758
29 | RRIRYRPPRLPRPRPRPPFSPRP | -0.285
30 | RRIRFRPPRLPRPRPRPMYYPRP | -0.123
31 | RRIRCRPPRLPRPRPRPNNYPRP | -0.81
32 | RRIRGRPPRLPRPRPRPMNYPRP | 0.00834
33 | RRIRPRPPRLPRPRPRPVQMPRP | 0.0287
34 | RRIRNRPPRLPRPRPRPYVMPRP | -1.01
35 | RRIRSRPPRLPRPRPRPDTDPRP | 0.0794
36 | RRIRQRPPRLPRPRPRPYEVPRP | -0.31
37 | RRIRVRPPRLPRPRPRPTSHPRP | -0.139
38 | RRIRHRPPRLPRPRPRPDFHPRP | -0.769
39 | RRIRLRPPRLPRPRPRPVQHPRP | -0.0767
40 | RRIRPRPPRLPRPRPRPDERPRP | -0.0865
41 | RRIRHRPPRLPRPRPRPGGYPRP | -0.258
42 | RRIRHRPPRLPRPRPRPCEVPRP | -0.00674
43 | RRIRNRPPRLPRPRPRPRKFPRP | -0.101
44 | RRIRTRPPRLPRPRPRPWPEPRP | 0.0147
45 | RRIRSRPPRLPRPRPRPGNQPRP | -0.0918
46 | RRIRPRPPRLPRPRPRPLDCPRP | 0.0595
47 | RRIRERPPRLPRPRPRPESDPRP | -0.0699
48 | RRIRWRPPRLPRPRPRPMMIPRP | -0.0137
49 | RRIRHRPPRLPRPRPRPWFRPRP | -0.00674
50 | RRIRRRPPRLPRPRPRPIEFPRP | -0.0597

Row | Sequence | shrunken log2 fold change
51 | RRIRLRPPRLPRPRPRPMCNPRP | 0.107
52 | RRIRERPPRLPRPRPRPGYSPRP | -0.00468
53 | RRIRLRPPRLPRPRPRPHVQPRP | -0.528
54 | RRIRIRPPRLPRPRPRPKDMPRP | -0.221
55 | RRIRIRPPRLPRPRPRPRCIPRP | -0.44
56 | RRIRLRPPRLPRPRPRPYMYPRP | -0.759
57 | RRIRQRPPRLPRPRPRPQNIPRP | -0.882
58 | RRIRARPPRLPRPRPRPGKEPRP | 0.222
59 | RRIRARPPRLPRPRPRPHRPPRP | -0.0433
60 | RRIRFRPPRLPRPRPRPEFHPRP | -0.342
61 | RRIRIRPPRLPRPRPRPRYCPRP | -0.157
62 | RRIRTRPPRLPRPRPRPMILPRP | -0.0648
63 | RRIRERPPRLPRPRPRPVWTPRP | -0.00115
64 | RRIRLRPPRLPRPRPRPEAVPRP | -0.0408
65 | RRIRARPPRLPRPRPRPHPNPRP | 0.21
66 | RRIRYRPPRLPRPRPRPVTCPRP | -0.0508
67 | RRIRLRPPRLPRPRPRPFLRPRP | -0.429
68 | RRIRIRPPRLPRPRPRPDWVPRP | 0.135
69 | RRIRRRPPRLPRPRPRPFFPPRP | 0.263
70 | RRIRVRPPRLPRPRPRPRMWPRP | 0.271
71 | RRIRRRPPRLPRPRPRPGTIPRP | -0.502
72 | RRIRERPPRLPRPRPRPINHPRP | 0.198
73 | RRIRTRPPRLPRPRPRPHKDPRP | -0.973
74 | RRIRDRPPRLPRPRPRPAEIPRP | 0.184
75 | RRIRWRPPRLPRPRPRPAWQPRP | 0.427

Row | Sequence | shrunken log2 fold change
76 | RRIRFRPPRLPRPRPRPCEKPRP | 0.00738
77 | RRIRIRPPRLPRPRPRPSMSPRP | -0.6
78 | RRIRHRPPRLPRPRPRPLDIPRP | -0.105
79 | RRIRKRPPRLPRPRPRPDHGPRP | 1.01
80 | RRIRGRPPRLPRPRPRPSQGPRP | -0.187
81 | RRIRNRPPRLPRPRPRPCSKPRP | -0.0508
82 | RRIRPRPPRLPRPRPRPALTPRP | 0.241
83 | RRIRFRPPRLPRPRPRPMDTPRP | -0.165
84 | RRIRMRPPRLPRPRPRPVSWPRP | 0.553
85 | RRIRGRPPRLPRPRPRPVKMPRP | 0.127
86 | RRIRQRPPRLPRPRPRPGQGPRP | -0.000829
87 | RRIRARPPRLPRPRPRPQWLPRP | 0.144
88 | RRIRPRPPRLPRPRPRPEWDPRP | 0.269
89 | RRIRFRPPRLPRPRPRPIVEPRP | 0.0776
90 | RRIRLRPPRLPRPRPRPEDRPRP | -0.0181
91 | RRIRPRPPRLPRPRPRPKRYPRP | 0.281
92 | RRIRNRPPRLPRPRPRPNIMPRP | -0.599
93 | RRIRYRPPRLPRPRPRPHQNPRP | -0.527
94 | RRIRVRPPRLPRPRPRPFSEPRP | -0.237
95 | RRIRWRPPRLPRPRPRPTQHPRP | 0.333
96 | RRIRNRPPRLPRPRPRPPYHPRP | -0.362
97 | RRIRVRPPRLPRPRPRPGHYPRP | -0.125
98 | RRIRWRPPRLPRPRPRPCAQPRP | 0.162
99 | RRIRDRPPRLPRPRPRPGLIPRP | 0.0516
100 | RRIRFRPPRLPRPRPRPRKGPRP | 0.447

Row | Sequence | shrunken log2 fold change
101 | RRIRFRPPRLPRPRPRPMMIPRP | -0.018
102 | RRIRQRPPRLPRPRPRPRMNPRP | -0.15
103 | RRIRYRPPRLPRPRPRPDYHPRP | -0.0195
104 | RRIRERPPRLPRPRPRPDERPRP | 0.109
105 | RRIRYRPPRLPRPRPRPFACPRP | 0.0731
106 | RRIRKRPPRLPRPRPRPFYMPRP | -0.117
107 | RRIRFRPPRLPRPRPRPVIQPRP | -0.414
108 | RRIRGRPPRLPRPRPRPYAWPRP | 0.0018
109 | RRIRARPPRLPRPRPRPLACPRP | 0.695
110 | RRIRSRPPRLPRPRPRPFIPPRP | -0.629
111 | RRIRTRPPRLPRPRPRPSDEPRP | -0.516
112 | RRIRRRPPRLPRPRPRPSCWPRP | 0.285
113 | RRIRVRPPRLPRPRPRPGIHPRP | -0.118
114 | RRIRNRPPRLPRPRPRPGDDPRP | 0.0116
115 | RRIRWRPPRLPRPRPRPKLIPRP | -0.211
116 | RRIRIRPPRLPRPRPRPEFHPRP | 0.0992
117 | RRIRGRPPRLPRPRPRPASHPRP | 0.252
118 | RRIRSRPPRLPRPRPRPKLLPRP | 0.325
119 | RRIRIRPPRLPRPRPRPCMTPRP | -0.337
120 | RRIRQRPPRLPRPRPRPPNDPRP | 0.0155
121 | RRIRHRPPRLPRPRPRPMSYPRP | -0.0194
122 | RRIRERPPRLPRPRPRPNWIPRP | -0.324
123 | RRIRYRPPRLPRPRPRPLYRPRP | -0.335
124 | RRIRWRPPRLPRPRPRPRLVPRP | 0.476
125 | RRIRSRPPRLPRPRPRPRYDPRP | -0.444

Reference: the supplement of paper PMC9112550, “Optimization of the antimicrobial peptide Bac7 by deep mutational scanning” (BMC Biology, 2022)
